Assay results reported in article PMC3880866 (Nature structural & molecular biology, 2012).

B1: GST-BIRC3(541–C) (domain or fragment)
chain: DLPVEEQLRRLQEERTCKVCMDKEVSIVFIPCGHLVVCKDCAPSLRKCPICRSTIKGTVRTFLS
B2: GST-BIRC7 full length (enzyme)
chain: MGPKDSAKCLHRGPQPSHWAAGDGPTQERCGPRSLGSPVLGLDTCRAWDHVDGQILGQLRPLTEEEEEEGAGATLSRGPAFPGMGSEELRLASFYDWPLTAEVPPELLAAAGFFHTGHQDKVRCFFCYGGLQSWKRGDDPWTEHAKWFPSCQFLLRSKGRDFVHSVQETHSQLLGSWDPWEEPEDAAPVAPSVPASGYPELPTPRREVQSESAQEPGGVSPAEAQRAWWVLEPPGARDVEAQLRRLQEERTCKVCLDRAVSIVFVPCGHLVCAECAPGLQLCPICRAPVRSRVRTFLS
B3: GST-BIRC7(239–C) (domain or fragment)
chain: VEAQLRRLQEERTCKVCLDRAVSIVFVPCGHLVCAECAPGLQLCPICRAPVRSRVRTFLS
B4: MDM2(428–C)–MDMX(428–C) (complex)
chain 1: SSLPLNAIEPCVICQGRPKNGCIVHGKTGHLMACFTCAKKLKKRNKPCPVCRQPIQMIVLTYFP
chain 2: EDCQNLLKPCSLCEKRPRDGNIIHGRTGHLVTCFHCARRLKKAGASCPICKKEIQLVIKVFIA
B5: RNF2(1–114)–BMI1(1–109) (complex)
chain 1: MSQAVQTNGTQPLSKTWELSLYELQRTPQEAITDGLEIVVSPRSLHSELMCPICLDMLKNTMTTKECLHRFCADCIITALRSGNKECPTCRKKLVSKRSLRPDPNFDALISKIY
chain 2: MHRTTRIKITELNPHLMCVLCGGYFIDATTIIECLHSFCKTCIVRYLETSKYCPICDVQVHKTRPLLNIRSDKTLQDIVYKLVPGLFKNEMKRRRDFYAAHPSADAANG
B6: BIRC7 I284A (as in size exclusion chromatography and ubiquitination assays) (enzyme)
chain: MGPKDSAKCLHRGPQPSHWAAGDGPTQERCGPRSLGSPVLGLDTCRAWDHVDGQILGQLRPLTEEEEEEGAGATLSRGPAFPGMGSEELRLASFYDWPLTAEVPPELLAAAGFFHTGHQDKVRCFFCYGGLQSWKRGDDPWTEHAKWFPSCQFLLRSKGRDFVHSVQETHSQLLGSWDPWEEPEDAAPVAPSVPASGYPELPTPRREVQSESAQEPGGVSPAEAQRAWWVLEPPGARDVEAQLRRLQEERTCKVCLDRAVSIVFVPCGHLVCAECAPGLQLCPACRAPVRSRVRTFLS
B7: BIRC7 R286A (as in size exclusion chromatography and ubiquitination assays) (enzyme)
chain: MGPKDSAKCLHRGPQPSHWAAGDGPTQERCGPRSLGSPVLGLDTCRAWDHVDGQILGQLRPLTEEEEEEGAGATLSRGPAFPGMGSEELRLASFYDWPLTAEVPPELLAAAGFFHTGHQDKVRCFFCYGGLQSWKRGDDPWTEHAKWFPSCQFLLRSKGRDFVHSVQETHSQLLGSWDPWEEPEDAAPVAPSVPASGYPELPTPRREVQSESAQEPGGVSPAEAQRAWWVLEPPGARDVEAQLRRLQEERTCKVCLDRAVSIVFVPCGHLVCAECAPGLQLCPICAAPVRSRVRTFLS
B8: BIRC7 F296H (as in size exclusion chromatography and ubiquitination assays) (enzyme)
chain: MGPKDSAKCLHRGPQPSHWAAGDGPTQERCGPRSLGSPVLGLDTCRAWDHVDGQILGQLRPLTEEEEEEGAGATLSRGPAFPGMGSEELRLASFYDWPLTAEVPPELLAAAGFFHTGHQDKVRCFFCYGGLQSWKRGDDPWTEHAKWFPSCQFLLRSKGRDFVHSVQETHSQLLGSWDPWEEPEDAAPVAPSVPASGYPELPTPRREVQSESAQEPGGVSPAEAQRAWWVLEPPGARDVEAQLRRLQEERTCKVCLDRAVSIVFVPCGHLVCAECAPGLQLCPICRAPVRSRVRTHLS

Tests used:
[1] = molecular target: UbcH5BS~Ub (UbcH5B C85S covalently ester-linked to the C-terminus of ubiquitin) (UniProt P62837;P0CG48, C85S); experiment: SPR
UbcH5BS D117A~Ub = UbcH5BS D117A~Ub (UniProt P62837;P0CG48, C85S | D117A); experiment: SPR
UbcH5B = UbcH5B (UniProt P62837 1-147); experiment: SPR
SEC = molecular target: the molecule itself; experiment: SEC

Row | Binder | Kd [1] [µM] | stoichiometry N (SEC) | also measured
1 | B1 | 5 |  | 
2 | B2 | 181 |  | Kd (UbcH5BS D117A~Ub): 191 µM
3 | B3 | 136 |  | 
4 | B4 | 130 |  | 
5 | B5 |  |  | Kd (UbcH5B): 91 µM
6 | B6 |  | 2 | 
7 | B7 |  | 2 | 
8 | B8 |  | 2 | 
